Measured values: the nanobody polyreactivity screen of Harvey et al. (2022)

Experiment: yeast display, Sf9 membrane polyspecificity reagent, FACS + sequencing; frameworks hold sequencing errors
Summary of the method: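 A nanobody's polyreactivity label depends on the gate it was sorted from. Yeast display cells were stained with 10% biotinylated, detergent-solubilized Sf9 membrane reagent for 1 hour at 4 °C, enriched on streptavidin microbeads and sorted by FACS. The low and high (top ~1%) gates were set on anti-HA fluorescence for expression and streptavidin fluorescence for reagent binding.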
For “QVQLVESGGGLVQAGGSLRLSCAASGFTFNAYAMGWYRQAPGKERELVAAINVSGGITYYADSVKGRFTISRDIAKNTVYLQMNSLKPEDTAVYYCAADVEWTSRGSYYRYYYWGQGTQVTVSS”, the “polyreactivity (PSR sort gate)” value was “low polyreactivity”.
In the case of “QVQLVESGGGLVQAGGSLRLSCAASGFTFNAYAMGWYRQAPGKERELVAAINVSGGITYYADSVKGRFTISRDNAKNTVYLQMNSLNPEDTAVYYCAKGLDVVQRSEFDYWGQGTQVTVSS”, the “polyreactivity (PSR sort gate)” value is reported as “low polyreactivity”.
For “QVQLVESGGGLVQAGGSLRLSCAASGFTFNFNAMGWYRQAPGKERELVAAIRWSGGNTYYADSVKGRFTISRDNAKNTVYLQMNSLKPEDTAVYYCNRVGYQSMNYWGQGTQVTVSS”, the “polyreactivity (PSR sort gate)” value was “low polyreactivity”.
With “QVQLVESGGGLVQAGGSLRLSCAASGFTFNGNAMGWYRPAPGKERELVAAITRTGTDTSYADSVKGRFTISRDNAKNTVYLQMNSLKPEDTAVYYCAAPPYNGYRYGTTGYYWGQGTQVTVSS” the “polyreactivity (PSR sort gate)” value was “low polyreactivity”.
In the case of “QVQLVESGGGLVQAGGSLRLSCAASGFTFNKNAMGWYRQEPRKERELVAAISSSVGSTRYADSVKGRFTISRDNAKNTVYLQRNSLKPEDTAVYYCAVYVTPHSGWWLYDYWGQGTQVTVSS”, the “polyreactivity (PSR sort gate)” value is reported as “high polyreactivity”.
For “QVQLVESGGGLVQAGGSLRLSCAASGFTFNRNAMGWYRQAPGKERELVAAISRGGSTSYADSVKGRFTISRDNAKNTVYLQMNSLKPEDTAVYYCATYFRVYYSQYDYWGQGTQVTVTS”, the “polyreactivity (PSR sort gate)” value was “high polyreactivity”.
In the case of “QVQLVESGGGLVQAGGSLRLSCAASGFTFNRNAMGWYRQAPGKERFVAAITGSGASTYYADSVKGRFTISRDNAKNTVYLQMNSLKPEDTAVYYCNAEYYAGRYRYDYWGQGTQVTVSS”, the “polyreactivity (PSR sort gate)” value is reported as “high polyreactivity”.
For “QVQLVESGGGLVQAGGSLRLSCAASGFTFNRYAMGWYRQAPGKERELVAAITRRGGSTYYADSVKGRFTISRDNAKNTVYLQMNSLKPEYSAVYYCNVDFQAYGIPMDYWGQGTQVTVSS”, the “polyreactivity (PSR sort gate)” value was “high polyreactivity”.
With “QVQLVESGGGLVQAGGSLRLSCAASGFTFNWNDMGWYRQAPGKERELVAAISGGASTYYADSVKGRFTISRDNAKNTVYLQMNSLKPEDTAVYYCAADLDEWGYLFVYWGQGTQVTGSS” the “polyreactivity (PSR sort gate)” value was “low polyreactivity”.
With “QVQLVESGGGLVQAGGSLRLSCAASGFTFNWNTMGWYRQAPGKERELVAAISSGGITYYADSVKGRFTISRDNAKNTVYLQMNSLKPEDTAVYYCNVRPFRPHNRYGYWGQFTQVTVSS” the “polyreactivity (PSR sort gate)” value was “high polyreactivity”.
In the case of “QVQLVESGGGLVQAGGSLRLSCAASGFTFNWYAMGWYRQAPGKERELVAAINSSGGNTYYADSVKGRFTISRDTAKNTVYLQMNSLKPDDTAVYYCVFVYVYDYYYWGQGTQVTVSS”, the “polyreactivity (PSR sort gate)” value is reported as “high polyreactivity”.
For “QVQLVESGGGLVQAGGSLRLSCAASGFTFNYNAMGWYRQAPGKERELVAAISASGGTTYYADSVKGRFTISRDNAKNTVYLQMNSLKPEDTAVYYCAAPKLDDYDYWGQGTQVTVSS”, the “polyreactivity (PSR sort gate)” value was “low polyreactivity”.
For “QVQLVESGGGLVQAGGSLRLSCAASGFTFNYYAMGWYRQAHGKEREFVAAISRGGGRTYYADSVKGRFTISRDNAKNTVYLQMNSLKPEDTAVYYCAAQSVPYAYRLASYDYWGQGTQVTVSS”, the “polyreactivity (PSR sort gate)” value was “high polyreactivity”.
For “QVQLVESGGGLVQAGGSLRLSCAASGFTFNYYAMGWYRQAPGKERELVAAITSSGGSTYYADSVKGRFTISRDNAKNTVYLQMNSLKPEDTAVYYCNAAVYAHRYIYGFDYWGQGTQVTVSS”, the “polyreactivity (PSR sort gate)” value was “high polyreactivity”.
For “QVQLVESGGGLVQAGGSLRLSCAASGFTFNYYTMGWYRQAPGKERELVAAISGSGVSTYYADSVKGRFTISRDNAKNTVYLQMNSLKPEDTAVYYCNKLFGIYWGQGTQVTVSS”, the “polyreactivity (PSR sort gate)” value was “high polyreactivity”.
For “QVQLVESGGGLVQAGGSLRLSCAASGFTFPGYAMGWYRQAPGNEREFVAAITWSGGRTYYADSVKGRFTISRDNAKNTVYLQMNSLKPEDTAVYYCAAVYRGTWYDYDYWGQGTQVTVSS”, the “polyreactivity (PSR sort gate)” value was “high polyreactivity”.
For “QVQLVESGGGLVQAGGSLRLSCAASGFTFPHYMGWYRQAPGKERELVAAINVSGGSTSYADSVKGRFTISRDNAKNTVYLQMNSLKPEDTAVYYCAKDLRFRLFSYPSDYWGQATQVTVSS”, the “polyreactivity (PSR sort gate)” value was “low polyreactivity”.
For “QVQLVESGGGLVQAGGSLRLSCAASGFTFPIYAMGWYRQAPGKERELVAAITTRGGRTYYADSVKGRFTISRDNAKNTVYLQMNSLKPEDTAVYYCTTRGRRTDYDYWGQGTQVTVSS”, the “polyreactivity (PSR sort gate)” value was “high polyreactivity”.
With “QVQLVESGGGLVQAGGSLRLSCAASGFTFPSNGMGWYRQAPGKERELVAVIDWSDDSTYYADSVKGRFTISRDNAKNTVYLQMNSLKPEDTAVYYCNARHYLYHGYIVPKYSYGYDYWGQGTQVTVSS” the “polyreactivity (PSR sort gate)” value was “low polyreactivity”.
For “QVQLVESGGGLVQAGGSLRLSCAASGFTFPSYAMGWYRQAPGKERELVAAISYRGGRTYYADSVKGRFTISRDNAKNTVYLQMNSLKPEDTAVYYCAAKGWYFGYGRYGYWGQGTQVTVSS”, the “polyreactivity (PSR sort gate)” value was “high polyreactivity”.
For “QVQLVESGGGLVQAGGSLRLSCAASGFTFPSYDMGWYRQAPGKERELVAAISWSGTSTYYADSVKGRFTISRDNAKNTVYLQMNSLKPEDTAVYYCNAQYSYLWGEYGYWGQGTQVTVSS”, the “polyreactivity (PSR sort gate)” value was “high polyreactivity”.
For “QVQLVESGGGLVQAGGSLRLSCAASGFTFPVNAMGWYRQAPGKERELVAAIRWIGGDTYYADSVKGRFTISRDNAKNPVYLQMNSLKPEDTAVYYCAAEDTDDYSIWYEYWGQGTQVTVSS”, the “polyreactivity (PSR sort gate)” value was “high polyreactivity”.
With “QVQLVESGGGLVQAGGSLRLSCAASGFTFPVNTMGWYRQAPGKERELVAAISTSGAGTYYADSVKGRFTISRDNAKNTVYLQMNSLKPEDTAVYYCNADSQPGPYPGIRYDYWGQGTQVTVSS” the “polyreactivity (PSR sort gate)” value was “high polyreactivity”.
For “QVQLVESGGGLVQAGGSLRLSCAASGFTFPVYAMGWYRQAPGKERELVAAISSGGRTDYADSVKGRFTISRDNAKNTVYLQMNSLKPEDTAVYYCNKARSDHDGRNDSWGQGTQVTVSS”, the “polyreactivity (PSR sort gate)” value was “high polyreactivity”.
With “QVQLVESGGGLVQAGGSLRLSCAASGFTFPWYAKGWYRQAPGKERELVAAITSGSSTYYADSVKGRFTISRDNAKNTVYLQMNSLKPEVTAVYYCAKDGGWSRLHYNYWGQGTQVTVSS” the “polyreactivity (PSR sort gate)” value was “high polyreactivity”.
With “QVQLVESGGGLVQAGGSLRLSCAASGFTFPWYAMGWYRQAPGKERELVAAISTSGGSTYYADSVKGRFTISRDNAKNTVYLQMNSLKPEDTAVYYCAVGRKFGRYRVPFVVPYEYWGQGTQVTVSS” the “polyreactivity (PSR sort gate)” value was “high polyreactivity”.
In the case of “QVQLVESGGGLVQAGGSLRLSCAASGFTFPYAMGWYTQAPGKERELVAGISWSGGSTYYADSVKGRFTISRDNAKNTVYLQMNSLKPEDTAVYYCNKYVQSGGTYDYWGQGTQVTVSS”, the “polyreactivity (PSR sort gate)” value is reported as “low polyreactivity”.
In the case of “QVQLVESGGGLVQAGGSLRLSCAASGFTFPYYAMGLYRQAPGKERELVATISSGSSTNYADSVKGRFTISRDNAKNTVYLQMNSLKPEDTAVYYCAAVRSGYSGTDGQYSKYGYWGQGTQVTVSS”, the “polyreactivity (PSR sort gate)” value is reported as “high polyreactivity”.
With “QVQLVESGGGLVQAGGSLRLSCAASGFTFPYYAMGWYRQAPGKERELVAAINSVGSTYYADSVKGRFTISRDNAKNTVYLQMNSLKPEDTAVYYCNKRPSHWRHYIMDYWGQGTQVTVSS” the “polyreactivity (PSR sort gate)” value was “high polyreactivity”.
In the case of “QVQLVESGGGLVQAGGSLRLSCAASGFTFPYYAMGWYRQAPGKERELVAAITSSGGSTYYADSVKGRFTISRDNAKNTVYLQMNSLKPEDTAVYYCAVDAYYYKWYDYWGQGTQVTVSS”, the “polyreactivity (PSR sort gate)” value is reported as “high polyreactivity”.
In the case of “QVQLVESGGGLVQAGGSLRLSCAASGFTFPYYAMGWYRQAPGKERELVAGISWDGDSTYYADSVKGRFTISRDNAKNTVYLQMNSLKPEDTAVYYCAAGYITYYYGEYGYWGQGTQVTVSS”, the “polyreactivity (PSR sort gate)” value is reported as “low polyreactivity”.
In the case of “QVQLVESGGGLVQAGGSLRLSCAASGFTFQEYAMGWYRQAPGKERELVAAITSGTTTNYADSVKGRFTISRDNAKNTVYFQMNSLKPEDTAVYYCNVRSQSGSYRVYEYDYWGQGTQVTVSS”, the “polyreactivity (PSR sort gate)” value is reported as “low polyreactivity”.
With “QVQLVESGGGLVQAGGSLRLSCAASGFTFQPNAMGWYRQAPGKERELVAAITWSTGRTYYADSVKGRFTISRDNAKNTVYLQMNSLKPEDTAVYYCNKRKNLLHSFEYDYWGQGTQVTVSS” the “polyreactivity (PSR sort gate)” value was “low polyreactivity”.
With “QVQLVESGGGLVQAGGSLRLSCAASGFTFQTYAMGWYRQEPGKERELVATIRTRGGSTSYADSVKGRFTISRDNAKNTVYLQMNSLKPEDTAVYYCNGRLSYRSAWYYGGDRYDYWGQGTQVTVSS” the “polyreactivity (PSR sort gate)” value was “high polyreactivity”.
With “QVQLVESGGGLVQAGGSLRLSCAASGFTFQYYAMGWYRQAPGKERELVAAISWSGASTYYADSVKGRFTISRDNAKNTVYLQMNSLKPEDTAVYYSAAKYYRDRDWGQGTQVTVSS” the “polyreactivity (PSR sort gate)” value was “high polyreactivity”.
With “QVQLVESGGGLVQAGGSLRLSCAASGFTFQYYAMGWYRQAPGKERELVAAITRGDSTNYADSVKGRFTISRDNAKNTVYLQMNSLKPEDTAVYYCAKSVRYPASDYWGQGTQVTVSS” the “polyreactivity (PSR sort gate)” value was “low polyreactivity”.
In the case of “QVQLVESGGGLVQAGGSLRLSCAASGFTFQYYAMGWYRQAPGKERELVAVISRSGGRTYYADSVKGRFTISRDNGKNTVYLQMISLKPEDTAVYYCNAQSYIPTTETYDYWGQGTQVTVSS”, the “polyreactivity (PSR sort gate)” value is reported as “high polyreactivity”.
With “QVQLVESGGGLVQAGGSLRLSCAASGFTFRFYAMGWYRQAPGKERELVAGISSSGGTTYYADSVKGRFTISRDNAKNTVYLQMNSLKPEDTAVYYCNRRFLPAEQYTKKYYYWGQGTQVTVSS” the “polyreactivity (PSR sort gate)” value was “high polyreactivity”.
With “QVQLVESGGGLVQAGGSLRLSCAASGFTFRFYAMGWYRQAPGKERELVATISSRGGRTYYADSVKGRFTISRDNAKNTVYLQLNSLKPEDTAVYYCAADQKSQYQGNYWGQGTQVTVSS” the “polyreactivity (PSR sort gate)” value was “high polyreactivity”.
In the case of “QVQLVESGGGLVQAGGSLRLSCAASGFTFRFYVMVWYRLAPGKERELVAAITASGGTTYYADSVKGRFTISRDNAKNSVYLQMNSLKPEDTAVYYCNALYYYLYGYDYWGQGTQVTVSS”, the “polyreactivity (PSR sort gate)” value is reported as “high polyreactivity”.
With “QVQLVESGGGLVQAGGSLRLSCAASGFTFRGYAMGWYRQAPGKERELVAAITWSGGSTYYADSVKGRFTISRDNAKYTVYLQMNSLKPEDTAVYYCNAYYASGYRQYDYWGQGTQVTVSS” the “polyreactivity (PSR sort gate)” value was “high polyreactivity”.
With “QVQLVESGGGLVQAGGSLRLSCAASGFTFRGYDMGWYRQAPGKERELVAAISGGVSTNYADSVKGRFTISRDNAKNTVYLQMNSLKPEDTAVYYCAAVPVSAGYSSIFDYWGQGTQVTVSS” the “polyreactivity (PSR sort gate)” value was “low polyreactivity”.
In the case of “QVQLVESGGGLVQAGGSLRLSCAASGFTFRGYVMGWYRQAPGKERELVAAITNIGTSTYYADSVKGRFTISRDNAKNTVYLQMNSLKPEDTAVYYCAARLRTKFYYWGQGTLVTVSS”, the “polyreactivity (PSR sort gate)” value is reported as “low polyreactivity”.
